This is an account of results in patent US20250026792A1, “SELF-ASSEMBLING PEPTIDES WITH HYALURONIC ACID BINDING DOMAINS AND METHODS OF USE THEREOF” (Northwestern University, priority 2022, published 2025).

For one series, the target named is T1, collagen type I (Rattus norvegicus, UniProt P02454+P02466).
T1 construct: purchased Sigma-Aldrich
The series can be described thus: ECM specificity binding test, collagen type I coating. The following applies: 5.0 mg/ml peptide, FIG. 4. On the procedure:
(§1) Peptides were incubated 24 hours at 37° C. on collagens I-IV, elastin, hyaluronic acid, and Geltrex. Coatings (10 pig/cm^2) were previously dried overnight in milli-Q water. Overall significance was assessed using analysis of variance, with Tukey's multiple comparison post-hoc analysis between ECM groups where n=4.
(§2) Biotinylated peptides were custom synthesized by ABI Scientific, Inc. (Sterling, VA). Uranyl acetate and TEM grids were from Ted Pella, Inc (Redding, CA). Unless specified otherwise, all water used in these experiments was Milli-Q grade. HA (˜1 MDa), collagen types I (rat), II (chicken), III (human), and IV (mouse), elastin (bovine), deuterium oxide (D2O), acetic acid-d4, sodium acetate-d3, 3-(Trimethylsilyl)propionic-2,2,3,3-d6 (DSS-D6) acid sodium salt, and 2,2,2-trifluoroethanol (TFE) and were obtained from Sigma-Aldrich (St. Louis, MO). Streptavidin (Alexa Fluor 488 conjugate) and Geltrex were obtained from Thermo Fisher Scientific Inc. (Waltham, MA). […]
(§3) Hyaluronic acid, collagens I, II, III, and IV, elastin, and Geltrex were coated onto 96-well black plates (medium binding affinity) at 10 μg/cm^2 and were dried in milli-Q water at room temperature. […] The plates were read with a fluorescence microplate reader for fluorescence intensity (Ex 490 nm, Em 525 nm). All data were normalized to the background fluorescence intensity of Streptavidin-488.

A further series has as its target T2, collagen type II (Gallus gallus, UniProt P02460).
T2 construct: purchased Sigma-Aldrich
Put plainly: ECM specificity binding test, collagen type II coating. Also on record: species or system chicken. The following applies: 5.0 mg/ml peptide, FIG. 4. On the procedure: as §1, §2, §3

The next series deals with T3, collagen type III (Homo sapiens, UniProt P02461).
T3 construct: purchased Sigma-Aldrich
T3 sequence (P02461 154-1221 limits assumed): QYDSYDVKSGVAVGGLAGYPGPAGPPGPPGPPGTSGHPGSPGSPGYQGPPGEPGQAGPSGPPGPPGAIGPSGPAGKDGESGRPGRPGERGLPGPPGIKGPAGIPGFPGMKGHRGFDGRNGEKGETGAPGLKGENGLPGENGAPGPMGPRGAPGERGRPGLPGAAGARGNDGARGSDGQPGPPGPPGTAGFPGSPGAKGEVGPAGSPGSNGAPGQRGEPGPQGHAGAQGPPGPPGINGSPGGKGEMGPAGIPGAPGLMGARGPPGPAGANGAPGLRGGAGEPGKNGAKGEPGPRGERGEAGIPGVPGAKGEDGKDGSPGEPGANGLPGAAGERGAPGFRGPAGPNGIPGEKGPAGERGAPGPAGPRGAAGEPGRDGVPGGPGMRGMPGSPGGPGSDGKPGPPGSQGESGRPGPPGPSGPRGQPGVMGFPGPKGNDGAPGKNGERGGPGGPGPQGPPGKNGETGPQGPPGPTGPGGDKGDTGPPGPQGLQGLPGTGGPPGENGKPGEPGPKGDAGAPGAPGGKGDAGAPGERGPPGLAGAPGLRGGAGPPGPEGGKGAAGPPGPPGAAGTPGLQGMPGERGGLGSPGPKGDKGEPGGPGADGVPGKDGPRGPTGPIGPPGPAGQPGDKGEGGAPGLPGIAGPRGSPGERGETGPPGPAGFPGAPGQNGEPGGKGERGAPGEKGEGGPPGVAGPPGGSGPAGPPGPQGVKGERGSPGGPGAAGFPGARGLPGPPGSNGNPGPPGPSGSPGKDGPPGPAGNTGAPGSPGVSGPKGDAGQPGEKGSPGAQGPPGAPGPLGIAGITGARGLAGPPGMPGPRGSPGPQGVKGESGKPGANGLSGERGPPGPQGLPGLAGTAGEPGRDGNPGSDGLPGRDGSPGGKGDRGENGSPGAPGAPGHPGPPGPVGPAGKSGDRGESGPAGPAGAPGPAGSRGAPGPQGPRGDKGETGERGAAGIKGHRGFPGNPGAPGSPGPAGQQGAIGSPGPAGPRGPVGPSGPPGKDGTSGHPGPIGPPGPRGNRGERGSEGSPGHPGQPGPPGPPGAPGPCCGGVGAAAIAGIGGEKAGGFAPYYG
The series can be described thus: ECM specificity binding test, collagen type III coating. The following applies: 5.0 mg/ml peptide, FIG. 4. On the procedure: as §1, §2, §3

For a further series, the target named is T4, elastin (Bos taurus, UniProt P04985).
T4 construct: purchased Sigma-Aldrich
T4 sequence (P04985 27-747): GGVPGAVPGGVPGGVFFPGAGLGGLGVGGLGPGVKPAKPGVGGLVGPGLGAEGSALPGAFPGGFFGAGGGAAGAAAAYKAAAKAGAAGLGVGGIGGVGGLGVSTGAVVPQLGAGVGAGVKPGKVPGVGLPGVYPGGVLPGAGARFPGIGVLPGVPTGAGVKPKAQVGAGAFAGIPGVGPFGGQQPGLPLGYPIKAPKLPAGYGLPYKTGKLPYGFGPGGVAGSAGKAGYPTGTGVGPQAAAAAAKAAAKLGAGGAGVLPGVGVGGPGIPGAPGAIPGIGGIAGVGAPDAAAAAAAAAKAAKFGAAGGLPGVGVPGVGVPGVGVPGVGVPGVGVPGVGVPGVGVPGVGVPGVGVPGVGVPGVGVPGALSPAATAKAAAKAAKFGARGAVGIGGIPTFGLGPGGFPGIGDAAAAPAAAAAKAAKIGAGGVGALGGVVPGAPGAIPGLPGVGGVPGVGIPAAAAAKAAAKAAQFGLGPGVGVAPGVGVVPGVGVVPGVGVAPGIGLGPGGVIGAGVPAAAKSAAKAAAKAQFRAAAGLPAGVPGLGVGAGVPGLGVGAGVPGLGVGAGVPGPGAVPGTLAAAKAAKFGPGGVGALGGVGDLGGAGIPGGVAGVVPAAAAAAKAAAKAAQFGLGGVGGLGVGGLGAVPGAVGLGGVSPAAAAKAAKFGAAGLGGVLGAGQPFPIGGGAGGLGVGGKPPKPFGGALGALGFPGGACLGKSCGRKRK
Put plainly: ECM specificity binding test, elastin coating. Also on record: species or system bovine. The following applies: 5.0 mg/ml peptide, FIG. 4. On the procedure:
as §1
Biotinylated peptides were custom synthesized by ABI Scientific, Inc. (Sterling, VA). Uranyl acetate and TEM grids were from Ted Pella, Inc (Redding, CA). Unless specified otherwise, all water used in these experiments was Milli-Q grade. HA (˜1 MDa), collagen types I (rat), II (chicken), III (human), and IV (mouse), elastin (bovine), deuterium oxide (D2O), acetic acid-d4, sodium acetate-d3, 3-(Trimethylsilyl)propionic-2,2,3,3-d6 (DSS-D6) acid sodium salt, and 2,2,2-trifluoroethanol (TFE) and were obtained from Sigma-Aldrich (St. Louis, MO). Streptavidin (Alexa Fluor 488 conjugate) and Geltrex were obtained from Thermo Fisher Scientific Inc. (Waltham, MA). Sodium hyaluronate (5 and 60 KDa) was purchased from Lifecore Biomedical LLC (Chaska, MN). In reference to terminology, N and C termini is used to describe the amino terminal (N) and the carboxyl terminal (C) of the peptide. The biotinylated peptides are used in every experiment.
(§4) Hyaluronic acid, collagens I, II, III, and IV, elastin, and Geltrex were coated onto 96-well black plates (medium binding affinity) at 10 μg/cm^2 and were dried in milli-Q water at room temperature. N-termini biotinylated peptides were added to coated plates at 0, 1, 2.5, 5 and 10 mg/ml overnight at 37° C. in phosphate buffered saline (PBS), pH 7.4, after which the plates were washed three times with PBS. Fluorescent streptavidin-488 (4 μg/mL) was added to each well and incubated at 37° C. temperature for 24 hours, then thoroughly washed with PBS. The plates were read with a fluorescence microplate reader for fluorescence intensity (Ex 490 nm, Em 525 nm). All data were normalized to the background fluorescence intensity of Streptavidin-488.

Series [1] deals with extracellular matrix (ECM) components: Collagen type I, II, III and IV, elastin, hyaluronic acid and Geltrex. The series can be described thus: ECM specificity binding test, whole panel. The following applies: 5.0 mg/ml peptide, FIG. 4.
A short description of series [2]: Circular dichroism (CD) of peptides. Format: physicochemical. The following applies: 20 mM Sodium Cacodylate; for Ellipticity ratio (222 nm/208 nm) / Ellipticity 208 nm / Ellipticity 222 nm: 1.25 mg/mL; for Ellipticity 208 nm / Ellipticity 222 nm: CD data given as [θ]M×10^−3; for wavelength Minimum of CD profile: 5.0 mg/mL. (Circular dichroism is widely used to follow secondary structure.)

Series [3] in a line: Transmission electron microscopy (TEM) of peptide nanostructures. The class given is physicochemical. The following applies: for TEM characterization, Phosphate Buffered Saline (i): PBS pH 7.4, 0.5% w/v, 30 minutes sonication, 24 hrs at 37° C. On the procedure: The sample and stain were filter-dried in between steps. Samples were collected 24 hours at 37° C. after 30 minutes of sonication. All TEM was performed on a Philips FEI Technai Spirit G2 electron microscope. Peptides were incubated in both PBS and SC.

Series [4] can be described thus: Concentration-dependent peptide binding to hyaluronic acid coating (biotin-streptavidin fluorescence). An outline of the steps: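 N-terminally biotinylated peptides at 0, 1, 2.5, 5 and 10 mg/ml were incubated overnight at 37 °C in PBS, pH 7.4, on dried hyaluronic acid coatings (10 μg/cm^2), then washed three times in PBS. Groups compared with scrambled control by ANOVA with Tukey post-hoc, n=4.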

Series [5] is described as follows: ECM specificity binding test, hyaluronic acid coating. The following applies: 5.0 mg/ml peptide, FIG. 4. On the procedure:
as §1, §4

Another series deals with T5, collagen type IV (Mus musculus, UniProt P02463+P08122).
T5 construct: purchased Sigma-Aldrich
T5 sequence (P02463 173-1669): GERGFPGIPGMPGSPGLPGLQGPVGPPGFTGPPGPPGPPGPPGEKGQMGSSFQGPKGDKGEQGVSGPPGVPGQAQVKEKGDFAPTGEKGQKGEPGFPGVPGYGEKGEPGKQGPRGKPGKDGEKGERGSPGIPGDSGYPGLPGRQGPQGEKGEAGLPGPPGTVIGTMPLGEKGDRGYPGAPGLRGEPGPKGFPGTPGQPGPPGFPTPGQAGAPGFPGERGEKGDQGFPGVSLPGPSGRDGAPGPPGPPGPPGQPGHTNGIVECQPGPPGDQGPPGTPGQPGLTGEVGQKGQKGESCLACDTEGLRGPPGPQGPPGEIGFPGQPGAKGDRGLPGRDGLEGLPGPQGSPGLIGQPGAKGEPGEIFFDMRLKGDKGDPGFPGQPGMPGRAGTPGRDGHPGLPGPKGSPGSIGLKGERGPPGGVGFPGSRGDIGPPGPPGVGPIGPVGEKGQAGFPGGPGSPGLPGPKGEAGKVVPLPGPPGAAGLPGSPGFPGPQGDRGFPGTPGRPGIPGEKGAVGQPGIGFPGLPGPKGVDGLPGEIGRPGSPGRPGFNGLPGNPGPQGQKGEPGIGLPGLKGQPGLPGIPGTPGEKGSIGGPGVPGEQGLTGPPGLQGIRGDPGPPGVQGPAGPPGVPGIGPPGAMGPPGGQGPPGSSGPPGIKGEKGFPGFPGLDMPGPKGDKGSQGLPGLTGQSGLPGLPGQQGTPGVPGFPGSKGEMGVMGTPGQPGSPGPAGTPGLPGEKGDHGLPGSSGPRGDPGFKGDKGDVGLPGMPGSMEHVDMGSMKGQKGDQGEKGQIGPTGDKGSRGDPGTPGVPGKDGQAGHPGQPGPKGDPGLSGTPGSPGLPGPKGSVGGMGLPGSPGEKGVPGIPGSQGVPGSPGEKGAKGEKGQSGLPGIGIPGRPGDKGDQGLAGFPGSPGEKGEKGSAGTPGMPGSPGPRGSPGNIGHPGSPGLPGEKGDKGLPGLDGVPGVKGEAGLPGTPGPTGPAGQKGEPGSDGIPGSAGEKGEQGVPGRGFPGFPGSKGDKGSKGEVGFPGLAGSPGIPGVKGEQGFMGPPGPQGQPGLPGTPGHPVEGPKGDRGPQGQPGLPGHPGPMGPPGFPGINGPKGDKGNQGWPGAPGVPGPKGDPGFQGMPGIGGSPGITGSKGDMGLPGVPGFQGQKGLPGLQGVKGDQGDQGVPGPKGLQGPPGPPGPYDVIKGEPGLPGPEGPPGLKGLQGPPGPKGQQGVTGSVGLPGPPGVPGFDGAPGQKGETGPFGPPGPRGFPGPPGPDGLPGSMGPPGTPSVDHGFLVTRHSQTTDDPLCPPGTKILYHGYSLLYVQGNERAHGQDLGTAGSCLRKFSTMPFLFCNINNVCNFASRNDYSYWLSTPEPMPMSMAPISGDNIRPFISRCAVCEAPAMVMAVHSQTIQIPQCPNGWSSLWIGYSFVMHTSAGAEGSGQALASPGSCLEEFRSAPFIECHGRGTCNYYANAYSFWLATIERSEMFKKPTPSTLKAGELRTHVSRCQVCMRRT
T5 sequence (P08122 29-1707 limits assumed): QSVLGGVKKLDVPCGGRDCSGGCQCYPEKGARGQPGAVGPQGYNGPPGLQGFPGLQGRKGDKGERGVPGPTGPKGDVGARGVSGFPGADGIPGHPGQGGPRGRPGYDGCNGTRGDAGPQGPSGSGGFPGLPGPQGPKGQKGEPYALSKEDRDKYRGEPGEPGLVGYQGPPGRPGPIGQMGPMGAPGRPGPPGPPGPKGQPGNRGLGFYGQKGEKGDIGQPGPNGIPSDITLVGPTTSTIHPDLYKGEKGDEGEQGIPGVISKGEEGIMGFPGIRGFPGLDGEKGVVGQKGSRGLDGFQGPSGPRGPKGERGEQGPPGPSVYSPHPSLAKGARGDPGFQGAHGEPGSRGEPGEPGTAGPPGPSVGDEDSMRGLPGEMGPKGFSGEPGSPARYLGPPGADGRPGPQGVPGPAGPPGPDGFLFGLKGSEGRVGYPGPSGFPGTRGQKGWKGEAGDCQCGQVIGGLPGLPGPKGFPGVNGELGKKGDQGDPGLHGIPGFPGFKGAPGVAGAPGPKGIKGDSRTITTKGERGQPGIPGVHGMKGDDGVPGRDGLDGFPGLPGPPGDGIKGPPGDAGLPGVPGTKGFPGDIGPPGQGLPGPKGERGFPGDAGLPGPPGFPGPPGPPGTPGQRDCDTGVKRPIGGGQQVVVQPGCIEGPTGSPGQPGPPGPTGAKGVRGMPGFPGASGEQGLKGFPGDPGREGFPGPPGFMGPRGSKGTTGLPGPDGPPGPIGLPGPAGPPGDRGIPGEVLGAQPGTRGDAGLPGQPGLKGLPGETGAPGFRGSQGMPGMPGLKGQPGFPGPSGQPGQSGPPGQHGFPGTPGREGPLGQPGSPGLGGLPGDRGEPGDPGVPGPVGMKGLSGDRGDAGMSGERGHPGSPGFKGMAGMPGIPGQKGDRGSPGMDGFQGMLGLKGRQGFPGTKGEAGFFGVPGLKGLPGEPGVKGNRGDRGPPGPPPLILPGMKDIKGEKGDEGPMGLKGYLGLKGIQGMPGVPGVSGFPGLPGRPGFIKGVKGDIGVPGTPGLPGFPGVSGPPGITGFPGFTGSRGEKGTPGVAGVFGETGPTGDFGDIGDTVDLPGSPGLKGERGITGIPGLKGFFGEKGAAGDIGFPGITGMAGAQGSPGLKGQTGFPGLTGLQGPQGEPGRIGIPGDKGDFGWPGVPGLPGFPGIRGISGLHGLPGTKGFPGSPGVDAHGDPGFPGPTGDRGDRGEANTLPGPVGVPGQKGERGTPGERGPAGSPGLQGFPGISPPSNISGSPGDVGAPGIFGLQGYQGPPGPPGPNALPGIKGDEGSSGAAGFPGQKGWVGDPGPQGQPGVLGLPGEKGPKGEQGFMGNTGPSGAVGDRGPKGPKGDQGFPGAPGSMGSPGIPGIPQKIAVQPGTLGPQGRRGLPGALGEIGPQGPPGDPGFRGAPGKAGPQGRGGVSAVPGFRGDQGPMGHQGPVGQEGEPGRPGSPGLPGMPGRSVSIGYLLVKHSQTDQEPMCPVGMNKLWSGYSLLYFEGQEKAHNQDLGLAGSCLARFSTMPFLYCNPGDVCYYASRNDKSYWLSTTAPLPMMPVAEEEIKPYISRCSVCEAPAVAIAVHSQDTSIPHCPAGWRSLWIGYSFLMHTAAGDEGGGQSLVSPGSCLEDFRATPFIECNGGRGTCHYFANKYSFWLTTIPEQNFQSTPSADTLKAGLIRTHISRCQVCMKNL
Put plainly: ECM specificity binding test, collagen type IV coating. The following applies: 5.0 mg/ml peptide, FIG. 4. As to the method:
as §1, §2, §3

Another series relates to Geltrex. The series can be described thus: ECM specificity binding test, Geltrex coating. The following applies: 5.0 mg/ml peptide, FIG. 4. On the procedure:
as §1, §2, §3

“Also recorded” adds a separate entry of the source.

T2 sequence (P02460 whole entry): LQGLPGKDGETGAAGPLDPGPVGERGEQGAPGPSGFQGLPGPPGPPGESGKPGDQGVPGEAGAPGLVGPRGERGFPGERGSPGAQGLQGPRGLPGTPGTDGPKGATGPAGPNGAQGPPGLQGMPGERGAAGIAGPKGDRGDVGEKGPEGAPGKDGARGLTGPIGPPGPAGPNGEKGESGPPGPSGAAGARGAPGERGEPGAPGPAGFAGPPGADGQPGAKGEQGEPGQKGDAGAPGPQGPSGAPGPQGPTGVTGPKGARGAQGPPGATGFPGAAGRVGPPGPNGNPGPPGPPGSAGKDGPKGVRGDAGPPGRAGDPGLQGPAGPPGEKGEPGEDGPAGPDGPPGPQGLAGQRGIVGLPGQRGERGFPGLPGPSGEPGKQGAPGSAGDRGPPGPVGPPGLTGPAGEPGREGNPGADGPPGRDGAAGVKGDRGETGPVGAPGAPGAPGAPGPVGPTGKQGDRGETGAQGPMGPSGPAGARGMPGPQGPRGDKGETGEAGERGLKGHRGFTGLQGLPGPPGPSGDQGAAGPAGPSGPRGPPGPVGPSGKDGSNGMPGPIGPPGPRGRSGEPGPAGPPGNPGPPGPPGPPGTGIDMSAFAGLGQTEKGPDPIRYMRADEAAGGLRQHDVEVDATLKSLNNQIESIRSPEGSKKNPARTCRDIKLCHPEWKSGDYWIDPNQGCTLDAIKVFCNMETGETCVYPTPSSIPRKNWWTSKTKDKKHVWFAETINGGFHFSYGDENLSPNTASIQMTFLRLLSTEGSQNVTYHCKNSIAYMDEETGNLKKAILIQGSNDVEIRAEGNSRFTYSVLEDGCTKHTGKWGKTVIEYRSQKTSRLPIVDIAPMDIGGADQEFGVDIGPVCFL

For the sequence “TKAKIKHSVKLKAKLRIKLVKRI [Peptide 10K, five B(X7)B domains in 23 residues]”, the “binding to collagen type I” value with collagen type I is “predominantly”. The “binding to collagen type II” value with collagen type II is “predominantly”. Besides, in the series with collagen type III, the “binding to collagen type III” value is “predominantly”. Further, the binding to elastin result with elastin is on record as “predominantly”. The “binding to the ECMs (for 17x-3: the ECMs other than hyaluronic acid)” value in series [1] is on record as “moderate binding”. In [2], the “Ellipticity ratio (222 nm/208 nm)” value was 0.67, the “Ellipticity 208 nm” value is −113, the “Ellipticity 222 nm” value is listed as −75.3 and the “wavelength Minimum of CD profile” value is given as 224 nm. In addition, in series [2] (20% TFE), the “Ellipticity ratio (222 nm/208 nm)” value is on record as 0.83, the “Ellipticity 208 nm” value is given as −235, the “Ellipticity 222 nm” value is given as −194 and the “wavelength Minimum of CD profile” value stood at 223 nm. Also, the “TEM characterization, Phosphate Buffered Saline (i)” value in series [3] is reported as “No structure”.
In the case of “TNLRNKYTFLARARANLAVRNKQNIKS [BHP4, variant of BHP3]”, the “binding to hyaluronic acid with increasing concentrations of peptide (fluorescence intensity)” value in [4] (0-10 mg/ml peptide, PBS pH 7.4, 37° C., HA coating 10 μg/cm^2, FIG. 3) is “increases dramatically”. Besides, the “HA binding, overall assessment” value in series [4] (summary and discussion statements) was “comparable binding; also recorded: HA specific and robust binders”. Moreover, in series [5], the “binding to hyaluronic acid in specificity testing” value is “binds”. Further, the “binding to collagen type II” value in the series with collagen type II is listed as “moderately”. Moreover, the “binding to collagen type IV” value in the series with collagen type IV is on record as “moderately”. The binding to elastin entry with elastin is listed as “moderately”. Moreover, the “binding to Geltrex” value in the series on Geltrex is on record as “moderately”. In [1], the “specificity of binding to ECMs” value is reported as “lowest specificity”. In series [2], the “Ellipticity ratio (222 nm/208 nm)” value worked out at 0.81, the “Ellipticity 208 nm” value is given as −107, the “Ellipticity 222 nm” value is given as −86.6 and the “wavelength Minimum of CD profile” value is listed as 226 nm. The “wavelength Minimum of CD profile” value in series [2] (20% TFE) was found to be 225 nm. The “TEM characterization, Phosphate Buffered Saline (i)” value in series [3] was “form fibers with many striations that form larger fibers and the larger fibers tend to form a mesh network”. Besides, in series [3] (both PBS and sodium cacodylate), the “nanofiber formation in TEM, overall” value was “consistent nanofibers; also recorded: predominantly form fibers with striations and furthermore form a mesh network”.
